This note sets out measurements from article PMC7481185.

The target in the test is enolase (AP-MS) (Arabidopsis thaliana) (UniProt P25696).
UniProt P25696, sequence (P25696 whole entry): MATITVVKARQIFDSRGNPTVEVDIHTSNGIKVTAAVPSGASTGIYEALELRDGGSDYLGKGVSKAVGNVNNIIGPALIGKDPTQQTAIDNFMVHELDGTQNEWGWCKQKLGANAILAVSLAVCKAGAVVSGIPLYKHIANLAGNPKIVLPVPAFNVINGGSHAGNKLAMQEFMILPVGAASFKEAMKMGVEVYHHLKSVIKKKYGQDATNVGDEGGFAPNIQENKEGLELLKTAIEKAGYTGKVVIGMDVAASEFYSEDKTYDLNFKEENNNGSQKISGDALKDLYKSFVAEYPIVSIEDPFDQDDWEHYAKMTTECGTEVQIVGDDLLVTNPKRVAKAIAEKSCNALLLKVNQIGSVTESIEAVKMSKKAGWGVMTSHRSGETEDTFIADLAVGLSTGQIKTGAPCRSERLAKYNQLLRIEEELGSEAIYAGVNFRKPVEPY

With “phosphoglycerate mutase 1 (AP-MS) (enzyme)”, the efficiency (Kcat/KM) of the conversion of 3PGA to pyruvate, NADH-coupled assay: isolated mitochondria (complex) against total extra-plastidial extract (free enzymes) was 19 times.
